Residue numbers refer to the chain shown, from its start.
How the values were obtained:
Test in all cases: ITC
[1] = target: T1, yedK C2A (Escherichia coli (gene from BL21 …, UniProt P76318 2-222, C2A))
T1 sequence: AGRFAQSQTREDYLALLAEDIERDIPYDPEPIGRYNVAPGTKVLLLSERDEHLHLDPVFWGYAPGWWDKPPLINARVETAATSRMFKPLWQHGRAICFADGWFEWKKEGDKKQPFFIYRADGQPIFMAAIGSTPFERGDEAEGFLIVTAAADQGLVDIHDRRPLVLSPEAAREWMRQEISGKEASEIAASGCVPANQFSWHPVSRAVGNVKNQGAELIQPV

[2] = target: T2, yedK W68A (Escherichia coli (gene from BL21 …, UniProt P76318 2-222, W68A))
T2 sequence: T1 sequence with A1C, W67A

[3] = target: T3, yedK T149A (Escherichia coli (gene from BL21 …, UniProt P76318 2-222, T149A))
T3 sequence: T1 sequence with A1C, T148A

[4] = target: T4, yedK WT (Escherichia coli (gene from BL21 …, UniProt P76318 2-222))
T4 sequence: T1 sequence with A1C

[5] = target: T5, yedK S84A (Escherichia coli (gene from BL21 …, UniProt P76318 2-222, S84A))
T5 sequence: T1 sequence with A1C, S83A

[6] = target: T6, yedK H160A (Escherichia coli (gene from BL21 …, UniProt P76318 2-222, H160A))
T6 sequence: T1 sequence with A1C, H159A

[7] = target: T7, yedK K113A (Escherichia coli (gene from BL21 …, UniProt P76318 2-222, K113A))
T7 sequence: T1 sequence with A1C, K112A

[8] = target: T8, yedK W106A (Escherichia coli (gene from BL21 …, UniProt P76318 2-222, W106A))
T8 sequence: T1 sequence with A1C, W105A

With CGGTCGATTC (ssDNA) [ssDNA] as the binder, how does the Kd [1] read?
Its Kd is 7.9 µM.

Does CGGTCGATTC (ssDNA) [ssDNA] bind [2]?
Result: no binding

Does CGGTCGATTC (ssDNA) [ssDNA] bind [3]?
Result: no binding

And the Kd [4]?
Its Kd is 2.2 µM.

And the Kd [5]?
The Kd was 10.8 µM.

What about the Kd [6] of the same binder?
The Kd was 1.4 µM.

And the Kd [7]?
The Kd was 2.1 µM.

And the Kd [8]?
The Kd was 18.7 µM.

From article PMC6821365
